In patent US20030186419:

Molecular target: rMBL-rMASP-2 complexes, P11226
Sequence (P11226 21-248, chain 1 of 2): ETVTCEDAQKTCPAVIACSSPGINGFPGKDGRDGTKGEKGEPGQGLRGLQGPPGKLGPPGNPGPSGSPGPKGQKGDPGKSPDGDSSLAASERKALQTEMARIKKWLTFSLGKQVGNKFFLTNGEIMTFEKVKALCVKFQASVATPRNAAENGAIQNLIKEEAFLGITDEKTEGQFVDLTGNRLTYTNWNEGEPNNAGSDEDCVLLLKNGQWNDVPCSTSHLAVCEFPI
Sequence (chain, as listed by the source, chain 2 of 2): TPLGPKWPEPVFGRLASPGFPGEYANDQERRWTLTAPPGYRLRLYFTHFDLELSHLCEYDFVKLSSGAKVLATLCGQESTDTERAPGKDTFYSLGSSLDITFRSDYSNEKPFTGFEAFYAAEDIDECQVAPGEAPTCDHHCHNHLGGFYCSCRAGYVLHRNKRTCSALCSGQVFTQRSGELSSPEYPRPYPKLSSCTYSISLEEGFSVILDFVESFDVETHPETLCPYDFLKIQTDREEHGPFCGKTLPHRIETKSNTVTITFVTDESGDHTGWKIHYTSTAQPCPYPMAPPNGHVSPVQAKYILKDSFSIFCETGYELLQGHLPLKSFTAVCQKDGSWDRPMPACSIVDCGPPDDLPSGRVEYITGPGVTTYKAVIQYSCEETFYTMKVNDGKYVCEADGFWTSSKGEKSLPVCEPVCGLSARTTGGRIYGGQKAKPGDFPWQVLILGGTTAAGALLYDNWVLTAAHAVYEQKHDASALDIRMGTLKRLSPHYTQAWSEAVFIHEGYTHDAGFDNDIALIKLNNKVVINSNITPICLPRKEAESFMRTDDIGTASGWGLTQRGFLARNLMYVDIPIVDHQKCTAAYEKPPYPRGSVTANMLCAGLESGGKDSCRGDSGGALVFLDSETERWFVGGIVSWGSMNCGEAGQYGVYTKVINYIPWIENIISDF

Protein: GSGALLSASWILTAAHVLRSQRRDTTVIPVSKEHVTVYL [rMASP-3 (recombinant MASP-3 from HEK 293EBNA cells transfected with the pMASP-3; 4.1 construct)]
- activation of C4 by rMBL-rMASP-2 complexes (bound C4 on mannan-coated wells, Eu-labelled anti-C4 antibody): The activity of rMBL-rMASP-2 complexes was also inhibited by rMASP-3
